# Results from article PMC6294510.
# Where two headings read alike, the source gives them in different places.
# Legend:
# ARTD2WGR+CAT [1] = biological target: T1, ARTD2WGR+CAT (Homo sapiens, UniProt Q9UGN5 90-583); experiment: SEC-SLS
# ARTD2FL WT [2] = biological target: T2, ARTD2FL WT (Homo sapiens, UniProt Q9UGN5 1-583); experiment: SEC-SLS
# ARTD2FL WT [3] = biological target: T2, ARTD2FL WT; experiment: ITC
# ARTD2WGR [4] = biological target: T3, ARTD2WGR (Homo sapiens, UniProt Q9UGN5 90-218); experiment: X-ray crystallography
# T3 sequence (Q9UGN5 90-218): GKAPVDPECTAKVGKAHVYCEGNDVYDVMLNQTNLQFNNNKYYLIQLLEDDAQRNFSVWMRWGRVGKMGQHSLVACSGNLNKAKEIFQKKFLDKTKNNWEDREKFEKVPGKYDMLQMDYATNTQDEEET
# ARTD2WGR [5] = biological target: T3, ARTD2WGR; experiment: X-ray crystallography; remark: listed apart in the source
# ARTD2WGR+CAT [6] = biological target: T1, ARTD2WGR+CAT; experiment: SEC-SLS; remark: listed apart in the source
# ARTD2FL WT [7] = biological target: T2, ARTD2FL WT; experiment: EMSA
# ARTD2WGR [8] = biological target: T3, ARTD2WGR; experiment: X-ray crystallography; remark: listed apart in the source
# ARTD2FL W151A = ARTD2FL W151A (Homo sapiens, UniProt Q9UGN5 1-583, W151A); experiment: SPR
# Chain of ARTD2FL W151A (Q9UGN5 whole entry W151A): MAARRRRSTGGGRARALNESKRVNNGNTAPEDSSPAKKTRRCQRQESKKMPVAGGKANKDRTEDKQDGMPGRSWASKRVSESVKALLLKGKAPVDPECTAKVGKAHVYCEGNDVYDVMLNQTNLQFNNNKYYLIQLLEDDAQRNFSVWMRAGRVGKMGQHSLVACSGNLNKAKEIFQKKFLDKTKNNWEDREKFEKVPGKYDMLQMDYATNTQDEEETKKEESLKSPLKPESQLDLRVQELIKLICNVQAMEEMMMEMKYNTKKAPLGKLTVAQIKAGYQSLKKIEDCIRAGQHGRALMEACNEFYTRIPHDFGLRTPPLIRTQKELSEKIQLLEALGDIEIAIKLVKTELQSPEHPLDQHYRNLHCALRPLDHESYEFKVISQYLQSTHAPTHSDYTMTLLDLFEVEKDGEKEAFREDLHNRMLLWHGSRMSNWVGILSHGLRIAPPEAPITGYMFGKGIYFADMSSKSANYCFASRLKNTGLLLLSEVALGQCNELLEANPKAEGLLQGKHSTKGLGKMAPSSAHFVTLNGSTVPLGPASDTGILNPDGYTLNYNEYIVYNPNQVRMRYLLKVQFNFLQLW
# ARTD2FL K179A = ARTD2FL K179A (Homo sapiens, UniProt Q9UGN5 1-583, K179A); experiment: SPR
# Chain of ARTD2FL K179A (Q9UGN5 whole entry K179A): as the sequence (Q9UGN5 whole entry W151A) above, with A151W, K179A counted along it
# ARTD2FL R153A = ARTD2FL R153A (Homo sapiens, UniProt Q9UGN5 1-583, R153A); experiment: SPR
# Chain of ARTD2FL R153A (Q9UGN5 whole entry R153A): as the sequence (Q9UGN5 whole entry W151A) above, with A151W, R153A counted along it
# ARTD2FL N127A = ARTD2FL N127A (Homo sapiens, UniProt Q9UGN5 1-583, N127A); experiment: SPR
# Chain of ARTD2FL N127A (Q9UGN5 whole entry N127A): as the sequence (Q9UGN5 whole entry W151A) above, with N127A, A151W counted along it
# ARTD2FL K183A = ARTD2FL K183A (Homo sapiens, UniProt Q9UGN5 1-583, K183A); experiment: SPR
# Chain of ARTD2FL K183A (Q9UGN5 whole entry K183A): as the sequence (Q9UGN5 whole entry W151A) above, with A151W, K183A counted along it
# ARTD2FL Y201F = ARTD2FL Y201F (Homo sapiens, UniProt Q9UGN5 1-583, Y201F); experiment: SPR
# Chain of ARTD2FL Y201F (Q9UGN5 whole entry Y201F): as the sequence (Q9UGN5 whole entry W151A) above, with A151W, Y201F counted along it
# T2 sequence (Q9UGN5 whole entry): as the sequence (Q9UGN5 whole entry W151A) above, with A151W counted along it
# T1 sequence (Q9UGN5 90-583): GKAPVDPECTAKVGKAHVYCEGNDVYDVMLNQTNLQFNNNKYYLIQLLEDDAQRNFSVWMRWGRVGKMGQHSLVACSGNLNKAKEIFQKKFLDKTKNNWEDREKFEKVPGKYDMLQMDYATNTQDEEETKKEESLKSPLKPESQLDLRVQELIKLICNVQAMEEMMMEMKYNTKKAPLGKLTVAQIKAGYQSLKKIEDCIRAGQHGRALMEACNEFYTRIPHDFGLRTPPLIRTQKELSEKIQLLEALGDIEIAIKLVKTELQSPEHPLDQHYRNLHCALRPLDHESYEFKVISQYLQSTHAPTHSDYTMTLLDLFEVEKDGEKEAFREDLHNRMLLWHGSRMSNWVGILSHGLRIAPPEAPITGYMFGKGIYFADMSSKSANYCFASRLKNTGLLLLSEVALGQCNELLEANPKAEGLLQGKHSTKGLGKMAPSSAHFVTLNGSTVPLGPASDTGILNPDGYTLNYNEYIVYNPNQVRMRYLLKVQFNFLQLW
binder,measurement,setting,value
"DNA-13 (dsDNA, 5'-phosphate on forward strand) DNA 1: GACGCAACCCGGAGAACACA DNA 2: TGTGTTCTCCGGGTTGCGTC",binding result,ARTD2WGR+CAT [1],binds
same,binding result,ARTD2FL WT [2],binds
GGAAGTTCTTTTGAACTTCC (structured_DNA) [DNA-3 blunt hairpin],binding result,ARTD2FL WT [3],binds
"DNA-9 (dsDNA, 5'-phosphate on both strands) DNA 1: CGGTCGCCTATAGGC DNA 2: CGGTCGCCTATAGGC",binding result,ARTD2WGR [4],binds
DNA-6 (dsDNA) DNA 1: GCCTAGCTACGTAGCTAGGC DNA 2: GCCTAGCTACGTAGCTAGGC,binding result,ARTD2WGR [5],binds
"GGGTCTTTTGACCCTCGAGCTTTTGCTCGA (structured_DNA, 5'-phosphate) [DNA-1 nicked hairpin]",binding result,ARTD2WGR+CAT [6],binds
same,binding result,ARTD2FL WT [3],binds
"GGAAGTTCTTTTGAACTTCCGCGAAGCTTTTGCTTCGC (structured_DNA, 5'-phosphate) [DNA-2 nicked dumbbell]",binding result,ARTD2FL WT [7],binds
"DNA-5 (dsDNA, 5'-phosphate on both strands) DNA 1: GCCTATAGGC DNA 2: GCCTATAGGC",binding result,ARTD2WGR [8],binds
"DNA-12 (dsDNA, 5'-phosphate on forward strand) DNA 1: GCAGCATGGCGGAGTTCACA DNA 2: TGTGAACTCCGCCATGCTGC",binding result,ARTD2FL W151A,no binding
same,binding result,ARTD2FL K179A,no binding
same,binding result,ARTD2FL R153A,no binding
same,binding result,ARTD2FL N127A,no binding
same,binding result,ARTD2FL K183A,no binding
same,binding result,ARTD2FL Y201F,no binding
